Legend:
Design in all cases: key to the marks not given beside the values
[1] = tested on: T1, DQGSFCTSL peptide (SEQ ID NO:7)
T1 sequence: DQGSFCTSL

[2] = tested on: T2, GGSLCTSF peptide (SEQ ID NO:4)
T2 sequence: GGSLCTSF

[3] = tested on: T3, GGSLMTSF peptide (SEQ ID NO:5)
T3 sequence: GGSLMTSF

[4] = tested on: T4, VDQGSIAASFVGT peptide (SEQ ID NO:10)
T4 sequence: VDQGSIAASFVGT

[5] = tested on: T5, AKDVDQGSFCTSLVGTLQY peptide (SEQ ID NO:13)
T5 sequence: AKDVDQGSFCTSLVGTLQY

[6] = tested on: T6, AKDVDQGSLCTSLVGTLQY peptide (SEQ ID NO:12)
T6 sequence: AKDVDQGSLCTSLVGTLQY

[7] = tested on: T7, VDQGSMAASLVGT peptide (SEQ ID NO:9)
T7 sequence: VDQGSMAASLVGT

[8] = tested on: T8, GGSFCTSL peptide (SEQ ID NO:6)
T8 sequence: GGSFCTSL

[9] = tested on: T9, AKDVDQGSVCTSFVGTLQY peptide (SEQ ID NO:11)
T9 sequence: AKDVDQGSVCTSFVGTLQY

[10] = tested on: T10, VDQGSLAASFVGT peptide (SEQ ID NO:8)
T10 sequence: VDQGSLAASFVGT

Measured: T2K substrate specificity

T2K kinase
+++: [1] | [2] | [3] | [4] | [5] | [6] | [7] | [8] | [9] | [10]
